According to paper PMC9993118:

How the values were obtained:
Conditions in all cases: EMSA: Pierce EMSA kit conditions, 15 min, 7.5% polyacrylamide gel at room temperature; footprinting: 20 mM Tris-HCl pH 7.5, 80 mM NaCl, 1 mM EDTA, 100 ug/ml …
Fis (Escherichia coli) = biological target: T1, Fis (Escherichia coli) (UniProt P0A6R3); test: EMSA
T1 sequence: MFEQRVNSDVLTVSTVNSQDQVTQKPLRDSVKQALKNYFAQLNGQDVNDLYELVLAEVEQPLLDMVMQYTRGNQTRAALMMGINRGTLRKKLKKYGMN

Lrp [1] = biological target: T2, Lrp (UniProt P0ACJ0); test: EMSA
T2 sequence: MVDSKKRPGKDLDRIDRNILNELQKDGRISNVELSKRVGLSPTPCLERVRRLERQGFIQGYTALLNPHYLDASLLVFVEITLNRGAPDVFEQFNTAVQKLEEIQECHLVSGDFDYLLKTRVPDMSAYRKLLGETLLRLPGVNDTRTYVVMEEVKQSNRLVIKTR

Lrp [2] = biological target: T2, Lrp; test: competition EMSA

**Q.** Which results are given for “CCACCTCATGCAATATAAACATCTATAAATAAAGATAACAATAGAATATTAAGGGGTTAGCTAAACTGAAAAAGTTTGTCCGCGATGCTTTCCTCTATGAGTCAAAATGGCCCCAAATGTTTCATCTTTTGGGGG (double strand) [fimS 135 bp probe, Fis site disrupted]”?
**A.** binding (Fis (Escherichia coli)): binds more weakly; binding (Lrp [1]): binds more weakly

**Q.** How did the binding (Fis (Escherichia coli)) turn out when “CCCCCAAAAGATGAAACATTTGGGGCCATTTTGACTCATAGAGGAAAGCATCGCGGACAAACTTTTTCAGTTTATTTGTTGGCTTAATATTCTATTGTTATCTTTATTTATAGATGTTTATATTGCATGAGGTGG (double strand) [fimS 135 bp probe (wild type)]” was run?
**A.** The binding was “binds”.

**Q.** And the binding (Lrp [1])?
**A.** Its binding is “binds”.

**Q.** What about the binding (Lrp [2]) of the same sequence?
**A.** The binding was “binds”.
